Results from the Human Domainome abundance scans (Beltran et al. 2025).
± gives the uncertainty stated by the source.

B1: Homeobox protein SIX6, residues 134 to 184; numbered along this chain, O95475 (parent)
chain: CFKERTRHLLREWYLQDPYPNPSKKRELAQATGLTPTQVGNWFKNRRQRDR

Variants of: B1
Assay: abundance fitness (aPCA) (normalised: wild type 0, dead -1); higher = more abundant; growth selection in yeast, the domain comes from the species named
Conditions: Homo sapiens
CFKERTRHLLREWYLQDPYPNPSKKRELAQPTGLTPTQVGNWFKNRRQRDR [A31P] gave an abundance fitness of -0.782 ± 0.23.
For CFKERTRHLLREWYLQDPYPNPSKKRELAQQTGLTPTQVGNWFKNRRQRDR [A31Q], the abundance fitness was -0.001 ± 0.09.
CFKERTRHLLREWYLQDPYPNPSKKRELAQRTGLTPTQVGNWFKNRRQRDR [A31R] showed an abundance fitness of -0.185 ± 0.06.
For CFKERTRHLLREWYLQDPYPNPSKKRELAQSTGLTPTQVGNWFKNRRQRDR [A31S], the abundance fitness was -0.292 ± 0.081.
With CFKERTRHLLREWYLQDPYPNPSKKRELAQTTGLTPTQVGNWFKNRRQRDR [A31T] the abundance fitness was -0.045 ± 0.094.
Variant CFKERTRHLLREWYLQDPYPNPSKKRELAQVTGLTPTQVGNWFKNRRQRDR [A31V] has an abundance fitness of -0.151 ± 0.066.
Work on CFKERTRHLLREWYLQDPYPNPSKKRELAQWTGLTPTQVGNWFKNRRQRDR [A31W] yielded an abundance fitness of -0.494 ± 0.11.
For CFKERTRHLLREWYLQDPYPNPSKKRELAQYTGLTPTQVGNWFKNRRQRDR [A31Y], the abundance fitness was -0.36 ± 0.15.
For CFKERTRHLLREWYLQDPYPNPSKKRELAQAAGLTPTQVGNWFKNRRQRDR [T32A], the abundance fitness was -0.572 ± 0.089.
CFKERTRHLLREWYLQDPYPNPSKKRELAQACGLTPTQVGNWFKNRRQRDR [T32C] gave an abundance fitness of -0.174 ± 0.11.
CFKERTRHLLREWYLQDPYPNPSKKRELAQADGLTPTQVGNWFKNRRQRDR [T32D] gave an abundance fitness of -0.719 ± 0.18.
With CFKERTRHLLREWYLQDPYPNPSKKRELAQAEGLTPTQVGNWFKNRRQRDR [T32E] the abundance fitness was -0.519 ± 0.19.
In the case of CFKERTRHLLREWYLQDPYPNPSKKRELAQAFGLTPTQVGNWFKNRRQRDR [T32F], the abundance fitness is reported as -0.947 ± 0.15.
CFKERTRHLLREWYLQDPYPNPSKKRELAQAGGLTPTQVGNWFKNRRQRDR [T32G] gave an abundance fitness of -0.863 ± 0.069.
Work on CFKERTRHLLREWYLQDPYPNPSKKRELAQAIGLTPTQVGNWFKNRRQRDR [T32I] yielded an abundance fitness of -0.606 ± 0.066.
CFKERTRHLLREWYLQDPYPNPSKKRELAQAKGLTPTQVGNWFKNRRQRDR [T32K] gave an abundance fitness of -0.932 ± 0.1.
With CFKERTRHLLREWYLQDPYPNPSKKRELAQALGLTPTQVGNWFKNRRQRDR [T32L] the abundance fitness was -0.384 ± 0.065.
Variant CFKERTRHLLREWYLQDPYPNPSKKRELAQANGLTPTQVGNWFKNRRQRDR [T32N] has an abundance fitness of -0.84 ± 0.12.
CFKERTRHLLREWYLQDPYPNPSKKRELAQAPGLTPTQVGNWFKNRRQRDR [T32P] gave an abundance fitness of -0.783 ± 0.17.
Work on CFKERTRHLLREWYLQDPYPNPSKKRELAQAQGLTPTQVGNWFKNRRQRDR [T32Q] yielded an abundance fitness of -1.01 ± 0.26.
Work on CFKERTRHLLREWYLQDPYPNPSKKRELAQARGLTPTQVGNWFKNRRQRDR [T32R] yielded an abundance fitness of -0.799 ± 0.085.
Variant CFKERTRHLLREWYLQDPYPNPSKKRELAQASGLTPTQVGNWFKNRRQRDR [T32S] has an abundance fitness of -0.312 ± 0.053.
CFKERTRHLLREWYLQDPYPNPSKKRELAQAVGLTPTQVGNWFKNRRQRDR [T32V] showed an abundance fitness of -0.294 ± 0.076.
For CFKERTRHLLREWYLQDPYPNPSKKRELAQAWGLTPTQVGNWFKNRRQRDR [T32W], the abundance fitness was -0.873 ± 0.13.
In the case of CFKERTRHLLREWYLQDPYPNPSKKRELAQAYGLTPTQVGNWFKNRRQRDR [T32Y], the abundance fitness is reported as -0.84 ± 0.26.
CFKERTRHLLREWYLQDPYPNPSKKRELAQATALTPTQVGNWFKNRRQRDR [G33A] showed an abundance fitness of -0.712 ± 0.059.
Variant CFKERTRHLLREWYLQDPYPNPSKKRELAQATCLTPTQVGNWFKNRRQRDR [G33C] has an abundance fitness of -0.757 ± 0.081.
With CFKERTRHLLREWYLQDPYPNPSKKRELAQATDLTPTQVGNWFKNRRQRDR [G33D] the abundance fitness was -0.629 ± 0.14.
Variant CFKERTRHLLREWYLQDPYPNPSKKRELAQATELTPTQVGNWFKNRRQRDR [G33E] has an abundance fitness of -0.722 ± 0.09.
For CFKERTRHLLREWYLQDPYPNPSKKRELAQATFLTPTQVGNWFKNRRQRDR [G33F], the abundance fitness was -0.946 ± 0.14.
In the case of CFKERTRHLLREWYLQDPYPNPSKKRELAQATHLTPTQVGNWFKNRRQRDR [G33H], the abundance fitness is reported as -0.61 ± 0.066.
Variant CFKERTRHLLREWYLQDPYPNPSKKRELAQATILTPTQVGNWFKNRRQRDR [G33I] has an abundance fitness of -0.936 ± 0.32.
In the case of CFKERTRHLLREWYLQDPYPNPSKKRELAQATKLTPTQVGNWFKNRRQRDR [G33K], the abundance fitness is reported as -0.679 ± 0.072.
Variant CFKERTRHLLREWYLQDPYPNPSKKRELAQATLLTPTQVGNWFKNRRQRDR [G33L] has an abundance fitness of -0.735 ± 0.059.
Variant CFKERTRHLLREWYLQDPYPNPSKKRELAQATMLTPTQVGNWFKNRRQRDR [G33M] has an abundance fitness of -0.555 ± 0.11.
With CFKERTRHLLREWYLQDPYPNPSKKRELAQATNLTPTQVGNWFKNRRQRDR [G33N] the abundance fitness was -0.499 ± 0.082.
In the case of CFKERTRHLLREWYLQDPYPNPSKKRELAQATPLTPTQVGNWFKNRRQRDR [G33P], the abundance fitness is reported as -0.848 ± 0.061.
Variant CFKERTRHLLREWYLQDPYPNPSKKRELAQATQLTPTQVGNWFKNRRQRDR [G33Q] has an abundance fitness of -0.514 ± 0.049.
Variant CFKERTRHLLREWYLQDPYPNPSKKRELAQATRLTPTQVGNWFKNRRQRDR [G33R] has an abundance fitness of -0.738 ± 0.051.
With CFKERTRHLLREWYLQDPYPNPSKKRELAQATSLTPTQVGNWFKNRRQRDR [G33S] the abundance fitness was -0.598 ± 0.065.
CFKERTRHLLREWYLQDPYPNPSKKRELAQATTLTPTQVGNWFKNRRQRDR [G33T] showed an abundance fitness of -0.727 ± 0.1.
In the case of CFKERTRHLLREWYLQDPYPNPSKKRELAQATWLTPTQVGNWFKNRRQRDR [G33W], the abundance fitness is reported as -0.853 ± 0.065.
With CFKERTRHLLREWYLQDPYPNPSKKRELAQATYLTPTQVGNWFKNRRQRDR [G33Y] the abundance fitness was -0.741 ± 0.19.
In the case of CFKERTRHLLREWYLQDPYPNPSKKRELAQATGATPTQVGNWFKNRRQRDR [L34A], the abundance fitness is reported as -0.911 ± 0.079.
Work on CFKERTRHLLREWYLQDPYPNPSKKRELAQATGCTPTQVGNWFKNRRQRDR [L34C] yielded an abundance fitness of -0.806 ± 0.081.
For CFKERTRHLLREWYLQDPYPNPSKKRELAQATGDTPTQVGNWFKNRRQRDR [L34D], the abundance fitness was -0.936 ± 0.087.
For CFKERTRHLLREWYLQDPYPNPSKKRELAQATGETPTQVGNWFKNRRQRDR [L34E], the abundance fitness was -0.624 ± 0.18.
CFKERTRHLLREWYLQDPYPNPSKKRELAQATGFTPTQVGNWFKNRRQRDR [L34F] gave an abundance fitness of -0.725 ± 0.12.
CFKERTRHLLREWYLQDPYPNPSKKRELAQATGGTPTQVGNWFKNRRQRDR [L34G] gave an abundance fitness of -0.742 ± 0.1.
Variant CFKERTRHLLREWYLQDPYPNPSKKRELAQATGHTPTQVGNWFKNRRQRDR [L34H] has an abundance fitness of -0.896 ± 0.066.
Work on CFKERTRHLLREWYLQDPYPNPSKKRELAQATGITPTQVGNWFKNRRQRDR [L34I] yielded an abundance fitness of -0.638 ± 0.072.
